Assay results taken from publication PMC10086585 (2023).

Biological target: human recombinant netrin‐1, on AHC biosensors (human, UniProt O95631 25-604)
Assay: BLI

Kd: 20.7 nM
B1: fibronectin leucine‐rich transmembrane protein (FLRT1), recombinant human (natural protein)
chain: IDSTTCPSVCRCDNGFIYCNDRGLTSIPADIPDDATTLYLQNNQINNAGIPQDLKTKVNVQVIYLYENDLDEFPINLPRSLRELHLQDNNVRTIARDSLARIPLLEKLHLDDNSVSTVSIEEDAFADSKQLKLLFLSRNHLSSIPSGLPHTLEELRLDDNRISTIPLHAFKGLNSLRRLVLDGNLLANQRIADDTFSRLQNLTELSLVRNSLAAPPLNLPSAHLQKLYLQDNAISHIPYNTLAKMRELERLDLSNNNLTTLPRGLFDDLGNLAQLLLRNNPWFCGCNLMWLRDWVKARAAVVNVRGLMCQGPEKVRGMAIKDITSEMDECFETGPQGGVANAAAKTTASNHASATTPQGSLFTLKAKRPGLRLPDSNIDYPMATGDGAKTLAIHVKALTADSIRITWKATLPASSFRLSWLRLGHSPAVGSITETLVQGDKTEYLLTALEPKSTYIICMVTMETSNAYVADETPVCAKAETADSYGPTTTLNQEQNAGPMASLP
